Measurements as given in article PMC3978094.
Read-outs that look alike come from different tables or passages of the source.

Assays:
[1] = biological target: T1, GATA3 DBD (N- and C-finger) (human, UniProt P23771-2 260-370); assay: SPR
[2] = biological target: T1, GATA3 DBD (N- and C-finger); assay: crystal structure
[3] = biological target: T1, GATA3 DBD (N- and C-finger); assay: crystal structure; remark: listed apart in the source
[4] = biological target: T1, GATA3 DBD (N- and C-finger); assay: SPR; remark: listed apart in the source

B1: single GATA site SPR probe (dsDNA)
DNA 1: CTCCCGCTCGCTCAGAGATAAGGCCTTAT
DNA 2: ATAAGGCTTTATCTCTGAGCGAGCGGGAG
Question: How did the Kd [1] turn out when B1 was run?
Answer: ~60 nM

B2: Complex 2/3 palindromic GATA site, 3-bp spacer, 20-mer (dsDNA)
DNA 1: TTCCTAAATCAGAGATAACC
DNA 2: GGTTATCTCTGATTTAGGAA
Question: Does B2 bind [2]?
Answer: binds

B3: Complex 1 palindromic GATA site, 1-bp spacer, 20-mer (dsDNA)
DNA 1: AATGTCCATCTGATAAGACG
DNA 2: CGTCTTATCAGATGGACATT
Question: Does B3 bind [3]?
Answer: binds

B4: palindromic GATA site SPR probe (dsDNA)
DNA 1: CTCCCGCTCGCTATCAGATAAGGCCTTAT
DNA 2: ATAAGGCCTTATCTGATAGCGAGCGGGAG
Question: For B4, which Kd [4] is on record?
Answer: ~6 nM
